Source: US20230374088A1 (GENERAL HOSPITAL, published 2023)
One block for each binder: values may come before it.

B1: Gli2-ZF (418-604aa; zinc finger domain of Gli2) (other, human, UniProt P10070 418-604, looked up)
chain: KEDLDRDDCKQEAEVVIYETNCHWEDCTKEYDTQEQLVHHINNEHIHGEKKEFVCRWQACTREQKPFKAQYMLVVHMRRHTGEKPHKCTFEGCSKAYSRLENLKTHLRSHTGEKPYVCEHEGCNKAFSNASDRAKHQNRTHSNEKPYICKIPGCTKRYTDPSSLRKHVKTVHGPDAHVTKKQRNDVH
notes: Expressed with an HRV-cleavable N-terminal 6xHis tag, cleaved 'if needed'; also called Gli-ZF
B3: GST-Kif7-CC (460-600aa) (other)
chain: PDSGIESASVEDQAAQGAGGRKEDEGAQQLLTLQNQVARLEEENRDFLAALEDAMEQYKLQSDRLREQQEEMVELRLRLELVRPGWGGPRLLNGLPPGSFVPRPHTAPLGGAHAHVLGMVPPACLPGDEVGSEQRGEQVTN
notes: held on the BLI sensor through the GST tag; also called Kif7 coiled-coil domain; coiled-coil dimerization domain fragment of Kif7; not shown: N-terminal GST tag (HRV protease cleavable, modified pGEX vector)

Key:
GST-Kif7-CC (460-600aa) [1] = biological target: B3; assay: BLI, GST-Kif7-CC on the sensor, Gli2-ZF titrated in the presence of 125 nM Gli2 target dsDNA (competitor); not an affinity of the free pair [panel A]
Description: (§1) BLI experiments were performed in an Octet Red 96 instrument (ForteBio). To quantify Kif7-Gli2 binding, Experiments were performed in an assay buffer containing 40 mM TRIS pH7.3, 40 mM KCl, 40 μM ATP 1 mM MgCl₂, 0.12% tween and 0.5 mM TCEP. In the simplest assay, dimeric GST-Kif7-CC at a concentration of 120 nM is immobilized on an anti-GST biosensor chip. Unbound Kif7 is washed away with buffer, and the chips are then dipped into buffer with a range of Gli2-ZF concentrations from 0-1 μM to allow for association of the two proteins. After 300 seconds, they are then moved back into a well with just buffer to allow dissociation for 400 seconds. The equilibrium response of each sensor from three independent repeats at each Gli2 concentration were normalized and plotted against Gli2 concentration and fitted with a Hill function to obtain a Kₜ. […] The assays were also performed with HIS-tagged Kif7-DM and the Kif7-Kif27 chimeric proteins, requiring the use of an anti-penta-HIS biosensor chip, and referencing sensors to account for non-specific binding of Gli2 to the HIS sensor. A flipped assay, using HIS-tagged Gli2 on the sensor and a range of Kif7 concentrations in buffer, was also conducted.

Kif7-DM-GFP (1-543aa) [2] = biological target: T1, Kif7-DM-GFP (1-543aa) (human, UniProt Q2M1P5 1-543); assay: cell-based or functional assay
T1 sequence: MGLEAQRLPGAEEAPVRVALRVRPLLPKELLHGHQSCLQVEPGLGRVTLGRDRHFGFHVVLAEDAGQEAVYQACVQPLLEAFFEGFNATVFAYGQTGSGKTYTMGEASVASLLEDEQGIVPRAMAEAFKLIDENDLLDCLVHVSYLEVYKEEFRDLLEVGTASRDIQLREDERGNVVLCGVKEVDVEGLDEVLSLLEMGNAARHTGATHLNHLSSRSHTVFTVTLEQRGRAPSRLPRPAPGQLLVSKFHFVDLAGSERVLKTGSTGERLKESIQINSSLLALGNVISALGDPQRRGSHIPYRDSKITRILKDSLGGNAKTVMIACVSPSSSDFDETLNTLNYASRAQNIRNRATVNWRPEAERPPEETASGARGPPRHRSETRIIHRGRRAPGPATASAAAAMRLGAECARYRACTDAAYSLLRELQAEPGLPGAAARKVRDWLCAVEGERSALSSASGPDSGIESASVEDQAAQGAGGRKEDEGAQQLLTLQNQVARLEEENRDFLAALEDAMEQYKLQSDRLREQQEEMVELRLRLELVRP

Kif7-DM-GFP (1-543aa) [3] = biological target: T1, Kif7-DM-GFP (1-543aa); assay: BLI; HIS-tagged, GFP-tagged kinesin on anti-penta-HIS sensor, Gli2-ZF as analyte, Hill fit
Description: (§2) Data represent mean and standard deviation from three independent repeats. The plots of binding response versus Gli2-ZF concentration were fit to a Hill equation to determine equilibrium dissociation constants (Kd).
as §1

Kif7M-Kif27CC chimera = biological target: T2, Kif7M-Kif27CC chimera (human, UniProt Q86VH2 475-570); assay: as above
T2 construct: range 475-570; not shown: HIS tag (used for BLI); GFP tag
T2 sequence: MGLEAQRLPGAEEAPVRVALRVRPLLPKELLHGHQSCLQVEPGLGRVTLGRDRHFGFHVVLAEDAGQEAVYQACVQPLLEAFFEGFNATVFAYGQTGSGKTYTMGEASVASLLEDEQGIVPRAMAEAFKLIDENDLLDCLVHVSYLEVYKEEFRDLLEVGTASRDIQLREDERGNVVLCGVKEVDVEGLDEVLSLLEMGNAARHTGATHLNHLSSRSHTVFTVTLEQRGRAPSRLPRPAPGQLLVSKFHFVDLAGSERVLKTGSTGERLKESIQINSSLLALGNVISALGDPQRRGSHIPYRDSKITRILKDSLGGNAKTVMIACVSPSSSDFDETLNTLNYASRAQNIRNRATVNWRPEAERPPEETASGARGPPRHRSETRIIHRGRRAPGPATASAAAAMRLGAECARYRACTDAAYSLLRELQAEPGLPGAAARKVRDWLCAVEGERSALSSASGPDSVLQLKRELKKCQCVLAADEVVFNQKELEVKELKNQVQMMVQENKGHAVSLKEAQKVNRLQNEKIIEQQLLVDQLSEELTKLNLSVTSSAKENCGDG
Description: as §2, §1

Kif27M-Kif7CC chimera = biological target: T3, Kif27M-Kif7CC chimera (human, UniProt Q86VH2 1-475); assay: as above
T3 construct: range 1-475; not shown: HIS tag (used for BLI); GFP tag
T3 sequence: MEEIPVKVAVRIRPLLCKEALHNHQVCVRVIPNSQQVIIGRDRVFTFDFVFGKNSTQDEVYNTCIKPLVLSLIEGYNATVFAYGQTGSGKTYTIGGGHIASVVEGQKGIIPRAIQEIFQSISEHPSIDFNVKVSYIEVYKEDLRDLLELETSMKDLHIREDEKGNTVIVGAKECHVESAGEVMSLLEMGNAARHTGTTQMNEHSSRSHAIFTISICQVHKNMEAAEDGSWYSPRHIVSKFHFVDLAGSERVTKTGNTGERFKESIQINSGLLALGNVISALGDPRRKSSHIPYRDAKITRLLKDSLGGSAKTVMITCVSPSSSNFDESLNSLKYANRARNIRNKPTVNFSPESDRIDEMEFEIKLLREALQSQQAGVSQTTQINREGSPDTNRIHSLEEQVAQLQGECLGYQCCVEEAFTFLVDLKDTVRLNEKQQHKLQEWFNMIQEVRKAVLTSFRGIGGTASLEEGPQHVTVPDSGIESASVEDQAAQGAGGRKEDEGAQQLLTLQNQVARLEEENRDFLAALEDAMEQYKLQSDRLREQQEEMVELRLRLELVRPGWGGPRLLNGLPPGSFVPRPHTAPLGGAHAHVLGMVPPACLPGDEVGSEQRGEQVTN
Description: as §2, §1

GST-Kif7-CC (460-600aa) [4] = biological target: B3; assay: BLI with Gli2-ZF truncation, Hill fit
Source text: as §2
(§3) Third, we performed a series of site-directed mutagenesis experiments to further confirm the structural model and map the residues of Gli2-ZF and Kif7-CC required for complex formation. We created five Gli2-ZF truncations containing different groups of zinc-fingers (FIG. 3C; FIGS. 10A & 10B). […] This is similar to the Gli-DNA interaction where ZF2 and ZF3 are critical for making contacts with the phosphate backbone of DNA (Pavletich and Pabo, Science, 261, 1701-1707, 1993).
(§4) BLI experiments were performed in an Octet Red 96 instrument (ForteBio). To quantify Kif7-Gli2 binding, Experiments were performed in an assay buffer containing 40 mM TRIS pH7.3, 40 mM KCl, 40 μM ATP 1 mM MgCl₂, 0.12% tween and 0.5 mM TCEP. In the simplest assay, dimeric GST-Kif7-CC at a concentration of 120 nM is immobilized on an anti-GST biosensor chip. Unbound Kif7 is washed away with buffer, and the chips are then dipped into buffer with a range of Gli2-ZF concentrations from 0-1 μM to allow for association of the two proteins. After 300 seconds, they are then moved back into a well with just buffer to allow dissociation for 400 seconds. […]

Gli2-ZF-1-4 [5] = biological target: T4, Gli2-ZF-1-4 (human, UniProt P10070 418-562, limits assumed); assay: BLI with Gli2-ZF truncation, Hill fit (legend of FIG. 10C); legend of FIG. 10C; Hill fit, three repeats
T4 construct: domain: zinc-fingers 1-4
Description: as §2
as §1, with “A flipped assay, using HIS-tagged Gli2 on the sensor and a range of Kif7 concentrations in buffer, was also conducted.” left out

[6] = biological target: B1; assay: BLI; GST-Kif7-CC on anti-GST sensor, Gli2-ZF as analyte, Hill fit of equilibrium response
Source text: Data represent mean and standard deviation from three independent repeats. The plots of binding response versus Gli2-ZF concentration were fit to a Hill equation to determine equilibrium dissociation constants (Kd). […] See also FIGS. 8A & 8B.
Single molecule fluorescence intensity and photobleaching analysis of the GFP-tagged proteins indicate that the GST-Kif7-CC is an obligate dimer and Gli2-ZF is a monomer (FIGS. 8C & 8D). […] We also verified that Kif7-CC-GFP and Gli2-ZF-GFP bind with similar affinity as the untagged proteins (FIG. 8E). Due to higher stability and yield of the Kif7-CC compared to the Kif7-SCC protein, we used the Kif7-CC for further biochemical analysis.
BLI experiments were performed in an Octet Red 96 instrument (ForteBio). To quantify Kif7-Gli2 binding, Experiments were performed in an assay buffer containing 40 mM TRIS pH7.3, 40 mM KCl, 40 μM ATP 1 mM MgCl₂, 0.12% tween and 0.5 mM TCEP. In the simplest assay, dimeric GST-Kif7-CC at a concentration of 120 nM is immobilized on an anti-GST biosensor chip. Unbound Kif7 is washed away with buffer, and the chips are then dipped into buffer with a range of Gli2-ZF concentrations from 0-1 μM to allow for association of the two proteins. After 300 seconds, they are then moved back into a well with just buffer to allow dissociation for 400 seconds.

Gli2-ZF-1-4 [7] = biological target: T4, Gli2-ZF-1-4; assay: BLI with Gli2-ZF truncation, Hill fit
Source text: as §2, §3, §4

[8] = biological target: B1; assay: BLI, Hill fit
Description: as §2, with “(Kd). […] GFP-tagged versions of proteins show a consistent increase in Kd that is within error range.” for “(Kd).”
as §1, with “A flipped assay, using HIS-tagged Gli2 on the sensor and a range of Kif7 concentrations in buffer, was also conducted.” left out

Gli2-ZF-GFP = biological target: T5, Gli2-ZF-GFP (human, UniProt P10070 418-604); assay: BLI, Hill fit
T5 construct: HRV-cleavable N-terminal 6xHis tag in the vector; not shown: C-terminal GFP tag
T5 sequence (looked up): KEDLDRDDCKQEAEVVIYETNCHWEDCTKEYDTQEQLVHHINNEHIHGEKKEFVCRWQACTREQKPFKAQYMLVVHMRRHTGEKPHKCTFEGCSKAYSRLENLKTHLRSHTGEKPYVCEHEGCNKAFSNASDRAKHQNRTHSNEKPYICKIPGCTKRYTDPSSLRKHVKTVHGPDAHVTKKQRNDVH
Description: as §2, with “(Kd). […] GFP-tagged versions of proteins show a consistent increase in Kd that is within error range.” for “(Kd).”
as §1, with “A flipped assay, using HIS-tagged Gli2 on the sensor and a range of Kif7 concentrations in buffer, was also conducted.” left out

- Kd (GST-Kif7-CC (460-600aa) [4]): 0.16 µM
B2: Gli2 ZF1-3 (other, human, UniProt P10070 418-530, looked up)
chain: KEDLDRDDCKQEAEVVIYETNCHWEDCTKEYDTQEQLVHHINNEHIHGEKKEFVCRWQACTREQKPFKAQYMLVVHMRRHTGEKPHKCTFEGCSKAYSRLENLKTHLRSHTGE
notes: domain: zinc-fingers 1-3

- Kd [8]: 0.065 µM
- Kd (Gli2-ZF-GFP): 0.057 µM
B4: GST-Kif7-CC-GFP (other)
chain: PDSGIESASVEDQAAQGAGGRKEDEGAQQLLTLQNQVARLEEENRDFLAALEDAMEQYKLQSDRLREQQEEMVELRLRLELVRPGWGGPRLLNGLPPGSFVPRPHTAPLGGAHAHVLGMVPPACLPGDEVGSEQRGEQVTN
notes: also called GST-tagged Kif7-CC-GFP; not shown: N-terminal GST tag; GFP tag, C-terminal by the name

Further lines, the binder ahead of its results:

Binder: B1
- EC50 (read off the curve) (GST-Kif7-CC (460-600aa) [1]): ~0.2 µM
- Kif7 fluorescence intensity on microtubules (TIRF) (Kif7-DM-GFP (1-543aa) [2]): > 5 fold
- Kd (Kif7-DM-GFP (1-543aa) [3]): 0.217 µM
- Kd (Kif7M-Kif27CC chimera): 0.397 µM
- Kd (Kif27M-Kif7CC chimera): 0.213 µM

Binder: B3
- Kd (Gli2-ZF-1-4 [5]): 0.103 µM
- Kd [6]: 0.048 µM
- Kd (Gli2-ZF-1-4 [7]): 0.101 µM
